From patent US5633145, “TNFα receptor-derived binding protein” (The Mathilda and Terence Kennedy Institute of Rheumatology, dated 1997)

Assays:
[1] = target: recombinant human TNFα (human, UniProt P01375, radioiodinated (125I, Iodogen method) in the radioligand binding assays; unlabelled as competitor and in the cytotoxicity assays); test: radioligand binding of 125I-TNFα to COS cells transfected with prTNFR, Scatchard analysis, 4 °C
Description: (§1) COS cells transfected with the TNFα receptor cDNA (prTNFR, 1300 bp EcoRI fragment) were incubated for 24 hours and then seeded into six well tissue culture plates (Nunc) at 4.5 ×10^8 cells per well. The cells were incubated for a further 48 hours and then receptor expression was quantitated by radioligand binding for 2 hours at 4° C. […] Binding data was analysed by the method of Scatchard (14).
The resulting plasmid was transfected into COS cells which were analyzed for TNF receptor expression after three days.

[2] = target: T1, recombinant human TNFβ (human, UniProt P01374); test: competition with 1 nM 125I-TNFα on COS-7 cells transfected with the TNFR cDNA; competitor 125I-TNFα
T1 sequence: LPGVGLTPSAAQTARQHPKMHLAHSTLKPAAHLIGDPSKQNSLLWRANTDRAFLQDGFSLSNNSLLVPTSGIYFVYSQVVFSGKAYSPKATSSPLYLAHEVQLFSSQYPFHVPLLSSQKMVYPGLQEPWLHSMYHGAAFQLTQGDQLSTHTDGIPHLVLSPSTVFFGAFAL
Description: as §1

B1: recombinant human TNFα 55 kD receptor expressed in COS-7 cells from plasmid prTNFR (receptor)
chain: DSVCPQGKYIHPQNNSICCTKCHKGTYLYNDCPGPGQDTDCRECESGSFTASENHLRHCLSCSKCRKEMGQVEISSCTVDRDTVCGCRKNQYRHYWSENLFQCFNCSLCLNGTVHLSCQEKQNTVCTCHAGFFLRENECVSCSNCKKSLECTKLCLPQIENVKGTEDSGTTVLLPLVIFFGLCLLSLLFIGLMYRYQRWKSKLYSIVCGKSTPEKEGELEGTTTKPLAPNPSFSPTPGFTPTLGFSPVPSSTFTSSSTYTPGDCPNFAAPRREVAPPYQGADPILATALASDPIPNPLQKWEDSAHKPQSLDTDDPRTLYAVVENVPPLRWKEF
[1]
  Ka: 2.5e+09 M⁻¹
[2]
  binding result: binds
